Test results as given in the nanobody polyreactivity screen of Harvey et al. (2022).

Test: yeast display, Sf9 membrane polyspecificity reagent, FACS + sequencing; frameworks hold sequencing errors
Outline: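 In a synthetic yeast display library (Saccharomyces cerevisiae BJ5465), nanobody expression was induced with galactose for 36–48 hours. FACS gates were set low and high (top ~1%) using anti-HA fluorescence for expression and streptavidin fluorescence for binding of the Sf9 membrane reagent. Each polyreactivity label is drawn from the gate of origin.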

Sequence	polyreactivity (PSR sort gate)
QVQLVESGGGLVQAGVSLRLSCAASAFILEGYAMGWYTQAPGKERELVAAISDSGGSTYYADSVKGRFTISRDNAKNTVYLQMNSLKPEDTAVYYCATAYYWWTAYSYSYDHWGQGTQVTVSS	high polyreactivity
QVQLVESGGGLVQAGVSLRLSCAASGFIFGLYVMGWYRQSPGKERELVAGITWTGGTTYYADSVKGRFTISRDNAKNTVYLQMNSLKPEDTAVYYCATRNYAVVPSVRREGYYWGQGTQVTVSS	low polyreactivity
QVQLVESGGGLVQAGVSLRLSCAASGFIFSFNAMGWYRQAPGKERELVAAISRSGGSTRYADSVKGRFTISRDNAKNTVYLQMNCLKPEDTAVYYCNARSPYYSYLLHAYRLFDYWGQGTQVTVSS	high polyreactivity
QVQLVESGGGLVQAGVSLRLSCAASGFTFPWYAMGWYLQAPGKERELVAAISWTGGSTYYADSVKGRFTSSRDNPKNTVNLQMLSLKPEDTAVYYCAVGIYDHLYNHEYWGHGTQVTVSS	low polyreactivity
QVQLVESGGGLVQAGVSLRLSCAASGGTFLVSAKGWYRQAPGKERQMVAAISVSGGSTYYADSVKGRFTISRDNAKNTVYLQMNSLKPEDTAVYYCAATYSHPFHTYVLRFFAYYYWGQGTQVTVSS	high polyreactivity
QVQLVESGGGLVQAGVSLRLSCAASGGTIVGNAMGWYRQAPGKERELVAAMSTNSGSTYYADSVKGRFTISRDNAKNTVYLQMNSLKPEDTAVYYFATRNSSKRRGYYYWGQGTQVTVSS	high polyreactivity
QVQLVESGGGLVQAGVSLRLSCAASGIIFRGNAMGWYRQAPGKERELVASICRRGGSTYYADSVKGRFTISRDNAKNTVYLQMNSLKPEDTAVYYCNAYGSTYVYGPYDYWGQGTQVTVSS	high polyreactivity
QVQLVESGGGLVQAGVSLRLSCAASGIILRYYVMGWYRQAPGKERELVAAITSRGGSTYYADSVKGRFTISRDNAKNTVYLQMNSLKPEDTAVYYCAAGYRNVNTFDYWGQGTQVTVSS	high polyreactivity
QVQLVESGGGLVQAGVSLRLSCAASGNIFGVYTMGWYRQAPGQEREFVAAISDGGSTYYADSVKGRFTISRDNAKNTVYLQMIRLKPEDTAVYYCAALIYGPDRVVDEFVYWGQGTQVTVSS	low polyreactivity
QVQLVESGGGLVQAGVSLRLSCAASGNTFKYYPMGWYRQAPGKEWELVAGITGTGGRTNYADSVKGRFTISRDNAKNTVYLQMTSLKPEDTAVYYFAADYWWYTGYDYWGQGTQVTVSS	high polyreactivity
QVQLVESGGGLVQAGVSLRLSCAASGRIFGYNDMGWYRQAPGKERELVAAINWTGGSTYYADSVKGRFTISRDNAKNTVYLQMNSLKPEDTAVYYCNADARTKWVQTHTDFITDYDYWGQGTQVTVSS	low polyreactivity
QVQLVESGGGLVQAGVSLRLSCAASGRTFAYNDMGCYRQAPGKERELVAAISWSDGTTYYADSVKGRFTSSRDNAKNTVYLQMNSLKPEDTAVYYCAAESYPSEVASYVSEYDYWGQGTQVTVSS	low polyreactivity
QVQLVESGGGLVQAGVSLRLSCAASGSIFVHYDMGWYRPAPGKERELVADIDYSGGSTYYADSVKGRFTISRDYAKNTVYLQMNSLKPEDTAVYDCAAERRRWGLDYYYWGQGTQVTVSS	high polyreactivity
QVQLVESGGGLVQAGVSLRLSCAASGSTFTANAMGWYRQAPGKERELVAAITNSDGSTYYADSVKGRFTISRDNAKNTVYLQINSLKPEDTAVYYCAKDYYACFWEMDYWGQGTQVTVSS	low polyreactivity
QVQLVESGGGLVQAGVSLRLSCAASGSTLVLNAMGWYRQAPGKERELDAAISRGGGSTSYADSVKGRFTISRDNAKNTVYLQMNSLKPEDTAVYYCNAYTYYHANHVQGFGYWGQGTQVTVSS	low polyreactivity
QVQLVESGGGLVQAGVSLRLSCAASGSTSSRNAMGRYRQAPGKEWELVAAITSGTRTYYADSVKGRFTISRDNAKNTVYLQMNSLKPEDTAVYYCARGRVSRYTNTDYDYWGQGTQVTVSS	high polyreactivity

Sequence	polyreactivity (PSR sort gate)
QVQLVESGGGLVQAGVSLRLSCSASGRTFSGYAMGWYRQAPGKERELVAAISGGTSTNYADSVKGRFTISRDNAKNSVYLPMNSLKPEDTAVYYCNTDVPDPYWAYWTGGYDYWGQGTHVTVSS	low polyreactivity
QVQLVESGGGLVQAGVSLSLSCAGSGFIFFQYPMGWYRDAPGKDRELVAAISGSGVTTYYADSVKGRFTISRDYAKKTVYLQMNSLKPEDTAVYYCAALHYRIRRTGMDYWGQGTQVTVSS	low polyreactivity
QVQLVESGGGLVQALGSLRLSCAASGTTFNSNVMGWYRPAPGKERELVAGNNTTYYADSVKGRFTISRDNAKNTVYLQMNSLKPEDTAVYYCNGSEDAPAIEYLAPDGHDGYWGQGTQVTVSS	low polyreactivity
QVQLVESGGGLVQARGSLRLSCAASALTFRIYDMGWYRQAPGKERELVAAITRGGSTYADSVKGRFTISRDNAKNTVYLQMNSLKPEDTAVYYCAARVRSTSQVSASPVWYYYWGQGTQVTVSS	high polyreactivity
QVQLVESGGGLVQARGSLRLSCAASGFILTYYAMGRYRQAPGKEMELVATISSGGGSTYYADSVKGRFTISRDNAKNTVYLQMNSLKPEDTAVYFCAASRRMTGIRYINRYEYWGQGTQVTVSS	high polyreactivity
QVQLVESGGGLVQARGSLRLSCAASGFTFDFYAMGWYRQAPGKERELVAAISKNDGTTYYADSVKGRFTISRDNAKNTVYLQMNSLKREDTAVYYCAAESGYPDYTYVSSGDYWGQGTQVTVSS	low polyreactivity
QVQLVESGGGLVQARGSLRLSCAASGIIFGYNAKGWYRQAPGKERELVAVITWNGGSTYYADSVKGCFTISRDNAKNTVYLQMNSLKPEDTAVYYCNAGDDYAYGVELSYDYWGQGTQVTVSS	low polyreactivity
QVQLVESGGGLVQARGSLRLSCAASGRIFSPYAMGWNRQAPWKERELVASITSGGTTNYADSVKGRFTISRDNAKNTVYLQMNSLKTEDTAVYYCATTYSYDDKFTSTLVDPDYGYWGQGTQVTVSS	low polyreactivity
QVQLVESGGGLVQARGSLRLSCAASGRILWDYAMGWYRQAPGKEREWLAAIDWSAGSTYYADSVKGRFTISRDNAKNTVYLQMKSLKPEDTAVYYCNARSRVGNSGADYDYWGQGTQVTVSS	low polyreactivity
QVQLVESGGGLVQARGSLRLSCAASGRTFGLYAMGWYIQAPGKEWELVAAITSGGSTYYADSVKGRFTISRDNAKYTVYLQMNSLTPEDTAVYFCDAEHDYLAQFEYDYWGPGTQVTVSS	low polyreactivity
QVQLVESGGGLVQARGSLRLSCAASGRTFTSYAMGWYRQAPGKERELVAAISKRGGNTYYADSVKGRFTISRDNAKNTVYLQMNSLKPEDTAVYYCAARTWAGRWYGLDYWGQGTQVTVSS	high polyreactivity
QVQLVESGGGLVQARGSLRLSCAASGRTSPYYAMGWYRQAPGKEREWVAAISDGGSTNYADSVKGRFTISRDNAKNTVYLQMNSLKPEDTAVYYCAAYWHCFGWLRGGYWGQGTQVTVSS	high polyreactivity
QVQLVESGGGLVQARGSLRLSCAASGSIFHHYAMGWYRQAPGKDTELVAAISKSGGSTYYADSVKGRFTISRDNAKNTVYLQMNSLKPEDTAVYYCNAEVFWWDLWYDYWGQGTKVTVSS	high polyreactivity
QVQLVESGGGLVQARGSLRLSCAASGSIFPGYAMRWYREAPGKARELVAAISTSGGSTYADSVTGRFTISRDNAKNTGYLQMNSLKPEDTAVYYCAATYTYTSPVYYSLDGPWPYDYWGQGSQVTVSS	low polyreactivity
QVQLVESGGGLVQARGSLRLSCAASGSIFPNYAMGWYRQAPGKERELVAAISSSGGRTYYADSVKGRFTSSRDNAKNTVYLQMNRLKPEDTAVYYCAVRGYWGEGTQVTVSS	low polyreactivity
